Biological target: T1, calcium-sensing receptor (CaSR)
T1 sequence (P41180 whole entry, species assumed, looked up): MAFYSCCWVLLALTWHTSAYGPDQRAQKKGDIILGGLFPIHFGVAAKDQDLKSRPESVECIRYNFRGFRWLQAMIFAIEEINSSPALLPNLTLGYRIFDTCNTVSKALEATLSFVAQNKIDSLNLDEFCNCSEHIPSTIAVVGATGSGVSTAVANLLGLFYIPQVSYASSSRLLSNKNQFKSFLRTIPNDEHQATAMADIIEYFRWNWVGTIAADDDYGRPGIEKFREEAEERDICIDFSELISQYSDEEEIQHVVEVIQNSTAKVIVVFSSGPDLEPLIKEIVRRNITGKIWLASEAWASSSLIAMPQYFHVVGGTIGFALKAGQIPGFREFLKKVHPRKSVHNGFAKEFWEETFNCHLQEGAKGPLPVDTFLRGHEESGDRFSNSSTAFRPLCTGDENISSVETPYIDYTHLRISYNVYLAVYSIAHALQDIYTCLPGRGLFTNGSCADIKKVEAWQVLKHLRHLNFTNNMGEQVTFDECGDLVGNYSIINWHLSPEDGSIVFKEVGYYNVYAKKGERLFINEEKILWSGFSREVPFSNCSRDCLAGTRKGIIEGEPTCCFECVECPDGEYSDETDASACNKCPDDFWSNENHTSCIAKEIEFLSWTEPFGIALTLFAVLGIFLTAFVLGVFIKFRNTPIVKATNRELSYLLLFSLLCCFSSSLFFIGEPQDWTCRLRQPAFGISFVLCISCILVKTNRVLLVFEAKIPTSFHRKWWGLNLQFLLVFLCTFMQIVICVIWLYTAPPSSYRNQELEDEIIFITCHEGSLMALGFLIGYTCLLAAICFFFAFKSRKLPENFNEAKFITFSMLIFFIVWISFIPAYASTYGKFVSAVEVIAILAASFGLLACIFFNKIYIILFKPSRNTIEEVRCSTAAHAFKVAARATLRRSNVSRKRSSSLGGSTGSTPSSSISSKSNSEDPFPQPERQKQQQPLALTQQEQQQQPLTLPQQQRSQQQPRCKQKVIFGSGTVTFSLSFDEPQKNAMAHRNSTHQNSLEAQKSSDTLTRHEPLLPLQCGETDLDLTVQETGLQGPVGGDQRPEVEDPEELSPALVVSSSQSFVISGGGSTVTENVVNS
Test: cell-based or functional assay

EC50 of agonistic activity on HEK293-CaSR cells, HTRF IP-1 competition method, at a Ca2+ concentration of 1.2 mM: 84.7 µM
EC50 of agonistic activity on HEK293-CaSR cells, HTRF IP-1 competition method, in the absence of Ca2+: 980 µM
B1: polypeptide of Example 1 (active polypeptide SEQ ID NO: 10) (peptide)
peptide 1: CARRRAR
peptide 2: YXFGGC
modifications: D-Tyr 1; Aib (2-aminoisobutyric acid) 2; D-Phe 3; L-Cys 6 disulfide-bonded to D-Cys 1 of the Y chain; free amino and carboxyl termini (H2N-D-Tyr-Aib-D-Phe-Gly-Gly-L-Cys-OH); N-terminal acetyl (Ac); C-terminal amide (NH2); all residues D-amino acids (Ac-D-Cys-D-Ala-D-Arg-D-Arg-D-Arg-D-Ala-D-Arg-NH2); D-Cys 1 disulfide-bonded to L-Cys 6 of the X chain

Reference: US20230331779A1 (SHAANXI MICOT TECHNOLOGY, published 2023)
